In patent US20060148038A1 (INST NAT L DE LA SANTE ET DE LA RECH MEDICALE, published 2006):
Numbering of substitutions follows the chain as printed.

B1: activated form of the GDX-IVG derivative (enzyme, human)
light: EDQVDPRLIDGKDGDQCETSPCQNQGKCKDGLGEYTCTCLEGFEGKNCELFTRKLCSLDNGDCDQFCHEEQNSVVCSCARGYTLADNGKACIPTGPYPCGKQTLER
heavy: IVGGQECKDGECPWQALLINEENEGFCGGTILSEFYILTAAHCLYQAKRFKVRVGDRNTEQEEGGEAVHEVEVVIKHNRFTKETYDFDIAVLRLKTPITFRMNVAPACLPERDWAESTLMTQKTGIVSGFGRTHEKGRQSTRLKMLEVPYVDRNSCKLSSSFIITQNMFCAGYDTKQEDACQGDSGGPHVTRFKDTYFVTGIVSWGEGCARKGKYGIYTKVTAFLKWIDRSMKTRGLPKAKSHAPEVITSSPLKEQKLISEEDLN
notes: domain: two EGF domains;domain: catalytic domain
B2: activated form of the GD-FX derivative (enzyme, human)
light: B1 light
heavy: B1 heavy
notes: as for B1
B3: activated form of the GDX-AVG derivative (enzyme, human)
light: B1 light
heavy: B1 heavy with I1A
notes: as for B1
B4: activated form of the GDX-IFG derivative (enzyme, human)
light: B1 light
heavy: B1 heavy with V2F
notes: domain: two EGF domains;domain: catalytic domain; Position 236 counted from the printed Ile235 = P1′
B5: activated form of the GDX-IFR derivative (enzyme, human)
light: B1 light
heavy: B1 heavy with V2F, G3R
notes: as for B1
B6: activated form of the GDX-SFR derivative (enzyme, human)
light: B1 light
heavy: B1 heavy with I1S, V2F, G3R
notes: as for B1
B7: activated form of the GDX-SVG derivative (enzyme, human)
light: B1 light
heavy: B1 heavy with I1S
notes: as for B1

Columns and labels:
[1] = target: D-Phe-Phe-Arg-CH3Cl; assay: inactivation kinetics: residual amidolytic activity on S2765 after incubation with D-FFR-CK, pseudo-first order, 25° C.
[2] = target: FX-recombinant (zymogen) (UniProt P00742)
[3] = target: GDX-AVG (zymogen) (UniProt P00742)
[4] = target: GDX-IFG (zymogen) (UniProt P00742)
[5] = target: GDX-IVG (zymogen) (UniProt P00742)
[6] = target: GDX-SFR (zymogen) (UniProt P00742)
[7] = target: GDX-SVG (zymogen) (UniProt P00742)
[8] = target: factor Va (KORDIA)
[9] = target: prothrombin (immunopurified)
[10] = target: T1, antithrombin (purified from human plasma) (human, UniProt P01008 33-464); assay: inhibition kinetics, continuous S2765 hydrolysis, pseudo-first order, no heparin, 25° C.
T1 construct: mature
T1 sequence (P01008 33-464): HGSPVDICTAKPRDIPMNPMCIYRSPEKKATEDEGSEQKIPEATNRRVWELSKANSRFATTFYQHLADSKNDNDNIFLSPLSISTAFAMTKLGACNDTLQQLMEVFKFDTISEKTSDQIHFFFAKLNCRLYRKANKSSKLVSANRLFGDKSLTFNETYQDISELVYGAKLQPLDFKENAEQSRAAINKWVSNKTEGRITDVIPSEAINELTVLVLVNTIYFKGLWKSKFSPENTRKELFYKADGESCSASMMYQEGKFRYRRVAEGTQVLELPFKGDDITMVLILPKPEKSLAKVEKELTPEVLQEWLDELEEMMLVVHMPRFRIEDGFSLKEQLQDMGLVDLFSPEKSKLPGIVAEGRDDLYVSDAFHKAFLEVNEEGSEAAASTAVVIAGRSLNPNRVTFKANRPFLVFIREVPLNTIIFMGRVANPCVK
Text: The method by continuous recording of the absorbance at 405 nm under pseudo-first order conditions is used to estimate (in the absence of heparin) the kₒₙ of the antithrombin for the activated form of the factor X derivative lacking Gla domain, and those of the activated forms of the GDX-IVG and GDX-IFG derivatives.

[11] = target: T1, antithrombin (purified from human …); assay: inhibition kinetics, continuous S2765 hydrolysis, second-order (slow tight-binding) conditions, 2 units/ml heparin, 25° C.
Experimental: The kinetics are studied at 25° C., in kinetics buffer containing 1 mg/ml of protease-free bovine albumin and 2 units per ml of heparin; they are followed continuously by virtue of the presence in the reaction medium of 400 μM S2765. The reaction is carried out in a microcuvette in a volume of 600 μl, following the kinetics using a lambda 14 spectrophotometer. The reaction is triggered by adding the minimum amount of activated form of the factor X derivative which is compatible with a reliable signal (1 to 2.5 nM depending on the derivative, such that, in the absence of inhibitor, approximately 10% of the chromogenic substrate is hydrolysed in 60 minutes). For each activated form of factor X derivative, the reaction is carried out in the presence of two concentrations of antithrombin, equal to 2 and 3 times the concentration of the target. By plotting the absorbance at 405 nm as a function of time, a curve is obtained which makes it possible, by non-linear regression using equation 6, to estimate the second-order rate constant for the reaction. The kₒₙ of the antithrombin for the activated form of the factor X derivative is given by equation 5 which takes into consideration the competition introduced by the substrate during the kinetics.

[12] = target: T1, antithrombin (purified from human …); assay: inhibition kinetics with antithrombin, no heparin
[13] = target: D-Phe-Phe-Arg-CH3Cl; assay: inactivation kinetics with D-FFR-CK, residual amidolytic activity on S2765
[14] = target: T1, antithrombin (purified from human …); assay: inhibition kinetics, batchwise residual amidolytic activity on S2765, pseudo-first order, 2 units/ml heparin, 25° C.
Experimental: The method by batchwise sampling of aliquots is used to estimate the kₒₙ of the antithrombin for the activated form of the GDX-AVG derivative (in the presence and the absence of heparin).
The reaction is carried out in kinetics buffer containing 1 mg/ml of protease-free bovine albumin (SIGMA, St Quentin-Fallavier, France) and, when appropriate, 2 units per ml of heparin (KORDIA). In a reaction volume of 10 μl, a sufficient amount of the activated form of the GDX-AVG derivative (0.5 μM in the presence of heparin, 1 μM in its absence) is incubated in the presence of a large excess of antithrombin (5 μM in the presence of heparin, 10 μM in its absence), for a varying amount of time at 25° C. The same experiment is repeated twelve times, varying the incubation time from one experiment to another (from 10 seconds for the first to 5 hours for the last, such that the incubation time for a given experiment is equal to double that of the preceding one). At the end of each incubation, 190 μl of S2765 (200 μM in kinetics buffer) are added, and the residual amidolytic activity is measured by recording the variation in the absorbance at 405 nm as a function of time (i.e. the initial rate of hydrolysis of the S2765) using an MR5000 microplate reader. […]

[15] = target: T1, antithrombin (purified from human …); assay: SDS-PAGE of covalent complexes, 1 µM derivative, 2 µM antithrombin, 2 units/ml heparin
Experimental: (§1) The incubation is sustained for one hour at 25° C., and the reaction mixture is analysed by polyacrylamide gel electrophoresis (10%, crosslinking 29/1), after denaturation and reduction of the sample. After staining with Coomassie blue, the presence of covalent complexes between the (inactivated) form of the factor X derivative and the antithrombin results in a decrease in the intensity of the band corresponding to antithrombin (60 kDa), a decrease in the intensity of the band corresponding to the activated form of the factor X derivative (31 kDa), and the appearance of a new band of higher molecular weight (approximately 100 kDa) corresponding to the covalent complex.

[16] = target: T1, antithrombin (purified from human …); assay: SDS-PAGE with Coomassie blue after incubation with antithrombin and heparin
Experimental: as §1

Molecule	kon [1] [M⁻¹ s⁻¹]	coefficient of acceleration of pNA release by the thrombin generated by the prothrombinase complex (+factor Va) [8]	coefficient of acceleration of pNA release by the thrombin generated by the activated factor X derivative alone (-factor Va) [9]	kon [10] [M⁻¹ s⁻¹]	kon [11] [M⁻¹ s⁻¹]	other results
activated form of the factor X from plasma (from UniProt P00742 41-179; P00742 235-488) (enzyme)	2300					
thrombin						cleavage of the factor X derivative by thrombin [2]: the FX-recombinant is not detectably cleavable by thrombin (ND); kcat/Km (M^-1 s^-1) for the activation of the factor X derivative by thrombin [3]: 1 10^2 (±9%); kcat/Km (M^-1 s^-1) for the activation of the factor X derivative by thrombin [4]: < 1 M⁻¹ s⁻¹; kcat/Km (M^-1 s^-1) for the activation of the factor X derivative by thrombin [5]: < 1 M⁻¹ s⁻¹; kcat/Km (M^-1 s^-1) for the activation of the factor X derivative by thrombin [6]: 4 10^3 (±27%); kcat/Km (M^-1 s^-1) for the activation of the factor X derivative by thrombin [7]: < 1 M⁻¹ s⁻¹
B1	2250	1.1 10^-4 (±1%)	2.8 10^-5 (±2%)	5800	2e+07	fold increase of the rate of activation of the prothrombin on addition of factor Va [8]: the addition of factor Va increases the rate of activation of the prothrombin 50-fold and 10-fold respectively
B2	2230	4.2 10^-4 (±2%)	8.8 10^-6 (±2%)	12000	1.3e+07	fold increase of the rate of activation of the prothrombin on addition of factor Va [8]: the addition of factor Va increases the rate of activation of the prothrombin 50-fold and 10-fold respectively
B3		3.1 10^-5 (±1%)	9.6 10^-7 (±2%)			rate of activation of the prothrombin with factor Va, against the non-mutated homologue (GDX-IVG) [8]: this is now only 13 times less than that obtained for the activated form of its non-mutated homologue (GDX-IVG); fold decrease of kon against its non-mutated homologue (no heparin) [12]: > 1000 times less; fold decrease of kon against the activated form of the factor X from plasma [13]: 1000 times less; kon [14]: 300 M⁻¹ s⁻¹
B4		4.9 10^-6 (±1%)	1.0 10^-7 (±2%)	180	760000	fold decrease of kon against the non-mutated activated forms (no heparin) [12]: 66 times smaller; fold decrease of kon against the activated form of the factor X from plasma [13]: 20 times lower
B5		3.3 10^-6 (±1%)				binding result [15]: binds
B6						binding result [16]: no binding
B7						binding result [15]: binds
